Series [1] concerns the target GST-gag (HIV-1 gag polyprotein, strain LAI) (HIV-1 (LAI)) (UniProt P03348). In words: filter. The conditions noted are these: for Kd: 5 mM MgCl2, 37 C.
The target is the same in series [2]. The series can be described thus: competition. Conditions: 1 nM gag, scale: fold excess unlabeled Psi for 50% competition.
The subject of series [3] is glutathione S-transferase (GST). In words: filter. Conditions: GST alone, low affinity.
The mark [4] stands for this setting: 50 mM Tris pH 7.5, 140 mM KCl, 5 mM NaCl.

Usually Kd stands for the free concentration of one partner at which half of the binding sites on the other are occupied at equilibrium, for simple one-to-one binding.

Take “GGGAAAAGCGAAUCAUACACAAGANNNNNNNNNNNNNNNNNNNNNNNNNNNNNNNNNNNNNNNNNNNNNNNNNNGCUCCGCCAGAGACCAACCGAGAA [SELEX B round 0 RNA pool]”: the equilibrium dissociation constant (Kd) in series [1] (setting [4]) is 1000 nM. In series [1] (setting [4]), “GGGAAAAGCGAAUCAUACACAAGANNNNNNNNNNNNNNNNNNNNNNNNNNNNNNNNNNNNNNNNNNNNNNNNNNGCUCCGCCAGAGACCAACCGAGAA [SELEX B round 4 RNA pool]” returned a Kd of 8.5 nM. Also, the fold excess of unlabeled Psi for 50% competition in series [2] (150 pM labeled pool) turned out to be 74. Taken in the same sequence, the figures for “GGGAAAAGCGAAUCAUACACAAGANNNNNNNNNNNNNNNNNNNNNNNNNNNNNNNNNNNNNNNNNNNNNNNNNNGCUCCGCCAGAGACCAACCGAGAA [SELEX B round 8 RNA pool]” were 1.1 nM and 630. Substance “GGGAGACAAGAAUAAACGCUCAANNNNNNNNNNNNNNNNNNNNNNNNNNNNNNNNNNNNNNNNNNNNNNNNNNUUCGACAGGAGGCUCACAACAGGC [SELEX A round 0 RNA pool]” returned a binding signal (% bound at 10 nM gag) in series [1] (4.0% at 0.1 nM, 6.0% without gag, negative control) of 3.5. In turn, “GGGAGACAAGAAUAAACGCUCAANNNNNNNNNNNNNNNNNNNNNNNNNNNNNNNNNNNNNNNNNNNNNNNNNNUUCGACAGGAGGCUCACAACAGGC [SELEX A round 10 RNA pool]” gave a dissociation constant (Kd) in series [1] (50 mM Tris pH 7.5, 200 mM KOAc, 10000-fold tRNA) of 1.5 nM. On to “GGGAGACAAGAAUAAACGCUCAAUCUCGUAUCAGCACACCGGUACAAAGAGGAUGCAAAUNCGCCUGUGACUUCGACAGGAGGCUCACAACAGGC [SW10.12]”, for which the binding signal (% bound at 10 nM gag) in series [1] (0.6% at 0.1 nM, 0.6% without gag) was found to be 11.2.

Substance “HIV-1 Psi RNA (456 nt, transcribed from XhoI-linearized pBsPVR789)” came in with a binding signal (% bound at 10 nM gag) in series [1] (13.4% at 0.1 nM, 14.7% without gag, positive control) of 87. Also, the Kd in series [1] (SELEX A experiment, 50 mM Tris pH 7.5, 200 mM KOAc) turned out to be 1.1 nM; in series [1] (SELEX B experiment, 50 mM Tris pH 7.5, 140 mM KCl, 5 mM NaCl), 5.2 nM. Besides, the fold excess of unlabeled Psi for 50% competition in series [2] (150 pM labeled Psi) stood at 20. Take random RNA: the Kd in series [3] is above 10000 nM.

Values taken from patent publication US5726017.
